# Laboratory results reported in article PMC7615141, “ADAMTS-7 modulates atherosclerotic plaque formation by degradation of TIMP-1” (Circulation research, 2023).
# B1: ADAMTS-7-FLAG (enzyme, human, UniProt Q9UKP4 28-1686, looked up)
# chain: APGPAPGRATEGRAALDIVHPVRVDAGGSFLSYELWPRALRKRDVSVRRDAPAFYELQYRGRELRFNLTANQHLLAPGFVSETRRRGGLGRAHIRAHTPACHLLGEVQDPELEGGLAAISACDGLKGVFQLSNEDYFIEPLDSAPARPGHAQPHVVYKRQAPERLAQRGDSSAPSTCGVQVYPELESRRERWEQRQQWRRPRLRRLHQRSVSKEKWVETLVVADAKMVEYHGQPQVESYVLTIMNMVAGLFHDPSIGNPIHITIVRLVLLEDEEEDLKITHHADNTLKSFCKWQKSINMKGDAHPLHHDTAILLTRKDLCAAMNRPCETLGLSHVAGMCQPHRSCSINEDTGLPLAFTVAHELGHSFGIQHDGSGNDCEPVGKRPFIMSPQLLYDAAPLTWSRCSRQYITRFLDRGWGLCLDDPPAKDIIDFPSVPPGVLYDVSHQCRLQYGAYSAFCEDMDNVCHTLWCSVGTTCHSKLDAAVDGTRCGENKWCLSGECVPVGFRPEAVDGGWSGWSAWSICSRSCGMGVQSAERQCTQPTPKYKGRYCVGERKRFRLCNLQACPAGRPSFRHVQCSHFDAMLYKGQLHTWVPVVNDVNPCELHCRPANEYFAEKLRDAVVDGTPCYQVRASRDLCINGICKNVGCDFEIDSGAMEDRCGVCHGNGSTCHTVSGTFEEAEGLGYVDVGLIPAGAREIRIQEVAEAANFLALRSEDPEKYFLNGGWTIQWNGDYQVAGTTFTYARRGNWENLTSPGPTKEPVWIQLLFQESNPGVHYEYTIHREAGGHDEVPPPVFSWHYGPWTKCTVTCGRGVQRQNVYCLERQAGPVDEEHCDPLGRPDDQQRKCSEQPCPARWWAGEWQLCSSSCGPGGLSRRAVLCIRSVGLDEQSALEPPACEHLPRPPTETPCNRHVPCPATWAVGNWSQCSVTCGEGTQRRNVLCTNDTGVPCDEAQQPASEVTCSLPLCRWPLGTLGPEGSGSGSSSHELFNEADFIPHHLAPRPSPASSPKPGTMGNAIEEEAPELDLPGPVFVDDFYYDYNFINFHEDLSYGPSEEPDLDLAGTGDRTPPPHSHPAAPSTGSPVPATEPPAAKEEGVLGPWSPSPWPSQAGRSPPPPSEQTPGNPLINFLPEEDTPIGAPDLGLPSLSWPRVSTDGLQTPATPESQNDFPVGKDSQSQLPPPWRDRTNEVFKDDEEPKGRGAPHLPPRPSSTLPPLSPVGSTHSSPSPDVAELWTGGTVAWEPALEGGLGPVDSELWPTVGVASLLPPPIAPLPEMKVRDSSLEPGTPSFPTPGPGSWDLQTVAVWGTFLPTTLTGLGHMPEPALNPGPKGQPESLSPEVPLSSRLLSTPAWDSPANSHRVPETQPLAPSLAEAGPPADPLVVRNAGWQAGNWSECSTTCGLGAVWRPVRCSSGRDEDCAPAGRPQPARRCHLRPCATWHSGNWSKCSRSCGGGSSVRDVQCVDTRDLRPLRPFHCQPGPAKPPAHRPCGAQPCLSWYTSSWRECSEACGGGEQQRLVTCPEPGLCEEALRPNTTRPCNTHPCTQWVVGPWGQCSGPCGGGVQRRLVKCVNTQTGLPEEDSDQCGHEAWPESSRPCGTEDCEPVEPPRCERDRLSFGFCETLRLLGRCQLPTIRTQCCRSCSPPSHGAPSRGHQRVARR
# notes: ADAMTS-7, human; also called ADAMTS-7-FLAG-cryptate; TS7-FLAG-Crypt; source: HEK293, transfected, in lysate
# Tests used:
# ADAMTS-7-FLAG = biological target: B1; assay: AlphaScreen or HTRF; competition in the time-resolved FRET assay: untagged recombinant TIMP-1 (400 or 800 ng) added to ADAMTS-7-FLAG and TIMP-1-HA in lysates; 665/620 nm ratio; seven independent experiments; conditions: one partner purified
# [1] = biological target: T1, TIMP-1-HA (tissue inhibitor of metalloproteinases 1 with HA tag) (human, UniProt P01033 24-207); assay: AlphaScreen or HTRF; the pair ADAMTS-7-FLAG and TIMP-1-HA in the competition experiment (lysates; 0 ng untagged TIMP-1 as reference); 665/620 nm ratio; seven independent experiments; conditions: partners not purified
# T1 construct: source: HEK293, transfected, in lysate; also in the supernatant
# T1 sequence (P01033 24-207): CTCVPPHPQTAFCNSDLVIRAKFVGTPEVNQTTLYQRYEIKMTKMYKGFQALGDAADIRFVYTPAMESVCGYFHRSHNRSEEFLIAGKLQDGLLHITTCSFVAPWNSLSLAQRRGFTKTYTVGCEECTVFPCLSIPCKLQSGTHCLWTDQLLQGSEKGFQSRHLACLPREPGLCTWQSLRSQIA
# [2] = biological target: T1, TIMP-1-HA (tissue inhibitor of …); assay: AlphaScreen or HTRF; time-resolved FRET; lysates of HEK293 cells overexpressing ADAMTS-7-FLAG and TIMP-1-HA incubated with anti-FLAG-cryptate and anti-HA-d2 antibodies; excitation 337 nm; 665/620 nm ratio as readout; conditions: partners not purified
FRET ratio (665/620) of ADAMTS-7-FLAG with TIMP-1-HA in the presence of 400 ng untagged TIMP-1 (ADAMTS-7-FLAG),FRET ratio (665/620) of ADAMTS-7-FLAG with TIMP-1-HA in the presence of 800 ng untagged TIMP-1 (ADAMTS-7-FLAG),FRET ratio (665/620) with 0 ng untagged TIMP-1 [1],FRET ratio (665/620) [2],Binder
4420 665/620 ratio,3570 665/620 ratio,–,–,"untagged, recombinant TIMP-1 (natural protein, The supplier may be named in the Supplemental Material; also called untagged TIMP-1; source: recombinant, untagged) not shown"
–,–,4950 665/620 ratio,5480 665/620 ratio,B1
